Results on 2 molecules are retold here after patent US20040072750A1, “Compounds and methods for the modulation of CD154” (priority 2001, published 2004).

Bridge positions count the residues as written; N and C are the ends. Square brackets hold non-standard residues; d marks the D form. Peptide text beside a SMILES is read from it. hArg = N=C(N)NCCCC[C@H](N)C(=O)O; Mpa = O=C(O)CCS

The subject of one assay is platelets. The assay is described as follows: Release of sCD154 from stimulated platelets in platelet-rich plasma (ELISA). It is filed as cell-based, human. The following applies: unstirred, FIG. 12B.
Assay [1] concerns washed platelets. The assay is described as follows: Western blot analysis of immunoprecipitated platelet CD154 (hydrolysis to 18 kDa sCD154). It is filed as cell-based, human. The text has this: As previously described, CD154 exists as a 33/31 kDa doublet in unstimulated platelets.
On the technique in general: In western blotting, separated proteins are transferred to a membrane and probed.

Assay [2] concerns Human umbilical vein endothelial cells (HUVECS). The assay is described as follows: Inflammatory response of endothelial cells to rsCD154 (MCP-1 ELISA, tissue factor clotting assay, ICAM-1/E-Selectin FACS). It is filed as cell-based. The method, then: Inflammation in the present invention study was measured by the upregulation of tissue factor on cultured endothelial cells. Endothelial cells were the cells selected for study as this is the most abundant cell exposed to blood and is known to express […], the ligand for CD154 (Yellin, MJ, J. Exp Med, 182: 1857(1995)).
Human umbilical vein endothelial cells (HUVECS) purchased from Clonetics Inc. were cultured with M199 containing 20% FBS, 50 μg/ml endothelial mitogen (Biomedical technologies Inc.) 2 mM glutamine, 1 mM Sodium Pyruvate, 1× Nonessential amino acids, 100 U/ml of penicillin/streptomycin and 100 μg/ml heparin. HUVECS (passage 3-5) grown in 6 well dishes or 96 well tissue culture plates coated with 0.75% bovine skin gelatin (Sigma chemicals) were incubated without and with different concentrations (100 ng-10 μg/ml) of rsCD 154 in the presence of TRAP-1 (monoclonal antibody against hCD154, BD Pharmingen) or MOPC-21 (mouse IgG, Sigma) for 4 hrs at 37° C. in Tyrode's-Hepes buffer (12 mM NaHCO3, 138 mM NaCl, 5.5 mM glucose, 2.9 mM KCl, 10 mM Hepes, 1 mM CaCl2, 1 mM MgCl2, pH 7.4). […]
The supernatants were collected and the concentrations of MCP-1 determined by ELISA. Expression of tissue factor was determined by clotting assays performed with the HUVECS in the 96 well plates. […] The expression of ICAM-1 and E-Selectin was determined by FACS analysis (FACSort, Beckton Dickinson) following release of the HUVECS from the dishes. HUVECS, when exposed to 2 μg/ml rsCD154, secreted 3 fold more MCP-1 after 4 hrs and this increase was blocked by anti-CD154 antibody, but not by an isotype matched control antibody. As measured by clotting assay there was 50% reduction in clotting time, which was reversed in the presence of TRAP-1.
(An ELISA detects its analyte on a solid surface through an enzyme-linked reagent.)

The test system of assay [3] is washed platelets. The assay is described as follows: β3 integrin tyrosine-759 phosphorylation staining of platelets spread on sCD154. The format is cell-based, human. The conditions noted are these: platelets spread on 10 μg/ml sCD154 coated cover slips. Here is the method: Further, cover slips were coated with 10 μg/ml sCD154 for 2 hours at 37° C. and blocked with 5% crystalline BSA (Sigma chemicals). 100 μl of washed platelets at 10^7/ml were allowed to spread for 1 hour at 37° C. Non-adhered platelets were washed off with PBS. Adhered platelets were fixed with 4% para-formaldehyde and permeabilized with 0.5% Triton X-100 and 0.5% BSA in PBS. Permeabilized platelets were blocked with 3% goat serum and 2% BSA for 30 min. followed by incubation with a IIIa(p3) integrin cytoplasmic tyrosine-759 phospho-specific polyclonal antibody for 2 hours at room temperature. After 30 minutes washing with PBS containing 0.1% Triton X-100 and 0.5% BSA, the coverslips were incubated with a Alexa 596 goat anti-rabbit antibody and Alexa fluor 488 phalloidin for 40 min. followed by a brief wash and mounted on slides with VECTASHIELD (Vector laboratories, Burlingame, Calif.). Images were recorded using a digital camera, Hamamatsu, ORCA-ER attached to a Nikon fluorescence microscope, eclipse E1000 (Technical Instruments, San Francisco, Calif.). […] The staining was inhibited by β3 759 phospho-peptide confirming the specificity of the antibody (FIG. 11b).

With `N=C(N)NCCCC[C@@H]1NC(=O)CCSSC[C@@H](C(N)=O)NC(=O)[C@@H]2CCCN2C(=O)[C@H](Cc2c[nH]c3ccccc23)NC(=O)[C@H](CC(=O)O)NC(=O)CNC1=O` [eptifibatide] ([Mpa][hArg]GDWPC-NH2; disulfide 1-7), the “sCD154 shedding from TRAP-activated platelets without aggregation” value with platelets was “inhibited”. In the assay on washed platelets [1] (5 μmol/L TRAP plus 2.5 μmol/L eptifibatide, 30 minutes), the “hydrolysis of CD154 and release of sCD154 from stimulated platelets” value is “inhibited”. For the same molecule, the “CD154 hydrolysis and appearance of the soluble 18 kDa fragment” value in the assay with washed platelets [1] (TRAP aggregation, 5 μM eptifibatide) is reported as “prevented”.

B1: rsCD154: bacterially expressed recombinant human soluble CD154 (108 a.a-261 a.a.), 18-kDa protein (protein)
chain: ENSFEMQKGDQNPQIAAHVISEASSKTTSVLQWAEKGYYTMSNNLVTLENGKQLTVKRQGLYYIYAQVTFCSNREASSQAPFIASLCLKSPGRFERILLRAANTHSSAKPCGQQSIHLGGVFELQPGASVFVNVTDPSQVSHGTGFTSFGLLKL
Consider B1, for which the “increased expression of ICAM-1 and E-Selectin” value in assay [2] (2 μg/ml of rsCD154, FACS) is listed as 2 fold. Further, the “MCP-1 secretion by HUVECS” value in assay [2] (2 μg/ml rsCD154, 4 hrs) was determined as 3 fold. Also, the “reduction in clotting time (tissue factor clotting assay)” value in assay [2] (HUVECS exposed to rsCD154) stood at 50%. Moreover, the “staining with β3 integrin 759-tyrosine phosphospecific antibody” value with washed platelets [3] is listed as “stained positive”.
